Measurements taken from the nanobody polyreactivity screen of Harvey et al. (2022).

test: yeast display, Sf9 membrane polyspecificity reagent, FACS + sequencing; frameworks hold sequencing errors
In short: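 A synthetic nanobody library was expressed on Saccharomyces cerevisiae BJ5465 by galactose induction for 36–48 hours. The library was stained for 1 hour at 4 °C with 10% biotinylated, detergent-solubilized Sf9 membrane reagent and enriched with streptavidin microbeads before FACS. Low and high (top ~1%) gates were set on anti-HA fluorescence for expression and streptavidin fluorescence for reagent binding, and each polyreactivity label reflects the gate of origin.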

Sequence	polyreactivity (PSR sort gate)
QVQLVESGGGLVQAGGSLRLSCAASGRTFKKYAMGWYRQAPGKERELVAAITSRVGSTSYADSVKGRFTISRDNAKNTVYLQMNSLKPEDTAVYYCAARYSVGTGYGYWGQGTQVTVSS	high polyreactivity
QVQLVESGGGLVQAVGSLRLSCAASGRIFGYYVMGWYRQAPGKERELVAAITSNGGSTYYADSVKGRFTFSRDNAKNTVYLQMNSLKPEDTAVYYGNKDKRYYRYGYWGQGTQVTVSS	high polyreactivity
QVQLVESGGGLVQAGGSLRLSSAASGSILYYNAMGWYRQAPGKERELVAAITSYGGDTYYADSVKGRFTISRDNAKNTVYLQMNSLKPEDSAVYYCAASSHFRPWAYYDDDYDHWGQGTQVTVSS	low polyreactivity
QVQLVESGGGLVQAGGSLRLSCAASGSIFYFNAMGWYRQAPGKERELVAAISSGGGTNYADSVKGRFTISRDNAKNTVYLQMNSLKPEDTAVYYCAAAVSLFYPTWYYFSYDYWGQGTQVTVSS	low polyreactivity
QVQLVESGGGLVQAGGSLRLSCAASGRIFRYNAMGWYRQAPGKERELVAAITRSGGSTYYADSVKGRFTISRDNAKNTVYLQMNSLKPEDTAVYYCAKVQNGQWSTSRVPGDYQYNYWGQGTQVTVSS	high polyreactivity
QVQLVESGGGLVQAGCSLRLRCAASGYTFYDYAMGWYRPAPGKERELVAASSSSGGSTYYADSVKGRFTISRDNAKNTGYLQMNSVKPEDTALYYCAVRARRWRYNYWGQGTQVTVSS	high polyreactivity
QVQLVESGGGIVQAGGSLRLSCAASGIIFYGYAMGWYRQAPGKERELVAVITSGGSTNYADSVKGRFTISRDNAKNTVYLQMNSLKPEDTAVYYCNAGYVSPDYDSWGQGTQVTVSS	high polyreactivity
QDQVVESGGGVVQAGGSLRLICAAYGSTLRYYDMGWYRQAPGKERELVAAISRGCSTYYADSVKGRFTISRDNAKNTVYLLMNSLKPEETAVFYCNKEYPSSYEYDYWGQGTQVTVSS	low polyreactivity
QVQLVESGGGLVQAGGSLRLSCAASGSIFTYYVMGWYRQAPGKERELVAGITGGGSTNYADSVKGRFTISRDNAKNTVYLQMNSLKPEDTAVYYCNAYEYLSAGYDYWGQGTQVTVSS	low polyreactivity
QVQLVESGGGLVQAGGSLRLSCSASGITFTSYAMGWYRQAPGKERELVASIDSDDSTNYADSVKGRFTISLDNAKNTVYLQMNSLKPEDTAVYYCNADYLTVSWSIPEHVTVRLMYYWGQGTQVTVSS	low polyreactivity
QVQIVESGGGLVQAGGSLRLSCAASGRIFNIYAMGWYRQAPGKERELVADIRWNGGSTYYADSVKGRFTISRDNAKNTVYLQMNSLKPEDTAVYYCAAARRRRFYDYYNAWYDVDYWGQGTQVTVSS	low polyreactivity
QVQLVESGGGLVQAGGSLRLSCAASGSTFQRYAMGWYRQAPGKERELVAAINKSGGTTYYADSVKGRFTISRDNAKNTVYLLMNSLKPEDTAVYYCATDNPVVYQPGNMDYWGQGTQVTVSS	low polyreactivity
QVQLVESGGGLVQAGGSLRLSCAASGSIFDRNAMGWYRQAPGKERELVAAITSGGSTYYADSVKGRFTISRDNAKNTVYLQMNSLKPEDTAVYYCNADTDPPVPLYYWGQGTQVTVSS	low polyreactivity
QVQLVESGGGLVQAGGTLRLSCAASGSIFGNYAMGWDRQAPGKERELVAGISKSGGRTYYADSVKGRFTISRDNAKNTVYLQMNSLKPEDTAVYYCNALVTRYQSLDRLGDYWGQGTQVTVSS	high polyreactivity
QVQLVESGGGLVQAGGSLRISCAASGRIFNINAMGWYRPAPGKERELVAAITWRSGSTYYADSVKGRFTISRDNAKNTVYLHMNSLKPEDTAVYYCAADFSQTRRPIRFYYWGQGSQVTVSS	high polyreactivity
QVQLVESGGGLVQAGGSLRLSCAASGSIFRRYAMGWYRQAPGKERELVASISSRGTRTYYADSVKGRFTISRDTAKNTVYLQMNSLKPEDTAVYYCAASYYTPYDYWGQGTQVTVSS	high polyreactivity

Sequence	polyreactivity (PSR sort gate)
QVQLVESGGGLVQAGGSLRLSCAASGLTFYVYAMGWYRQAPGKERELVAAISGRGGRTYYADSVKGRLTISRDNAKNTVYLQMNSLKPEDTAVYYCNRDYAVFSYGEYDSWGQGTQVTVSS	high polyreactivity
QVQLVESGGGLVQAGGSLRLSCAASGNTFYRYAMGWNRQAPGKERELVAAISNGGSTNYADSVKGRFTISRDNAKNTVYLQMNSLKPEDSAVYYWAAANTRRYTHGFWGHGTQVTVSS	high polyreactivity
QVQLVESGGGLVQAGGSLRLSCAASGSIFNGYDMGWYRQAPGKERELVAAISLSGDSTYYADSVKGRFTISRDYAKKTVYLQMNSLKPEDTAVYYCAAADYFRSYWGQGTQVTVSS	low polyreactivity
QVQLVESGGGLVQAGGSLRLSCAASGGIFPYYAMGWYRQAPGKERELVAGISQNDGRTYYADSVKGRFTISRDNAKNTVYLQMNSLIPDDTAVYYCATEYWYPRYGYWGQGTQVTVSS	low polyreactivity
QVQLVESGGGLVQAGGSLRLSCAASGSIFGDYDMGWYRQAPGKERELVAAITSGGSTDYADSVKGRFTISRDNAKNTVYLQMNRLKPEDTAVYYCAAEDKCGYFLFPFWLELDYWGQGTQVTVSS	low polyreactivity
QVQLVESGGGLVQAGGSLRLSCAASGSTILQNAMGWYRQAPGKERELVAAISRSGGSTYYADSVKGRFTISRDNAKNTVYLQMNSLKPEDTAVYYCARRYWPGSAYWIYDYWGQGTQVTVSS	high polyreactivity
QVQLVESGGGLVQAGGSLRLICAASGGTFRYYTMVWYRQAPGKERELVAAITRGGRTYYADSVKGRFTISRDNAKNTVYIQMNSLKPEDTAVYYCAGVRPRSPVSYENDYWGQGTQVTVSS	high polyreactivity
QVQLVESGGGLVQAGGSLRLSCAASGFIFRYYDMGWYRQAPGKERELVAAISWRGGRTYYADSVKGRFTISRDNAKNTVYLQMNSLKPEDTAVYYCAAGFSLWTYPKPYGEDYWGQGTQVTVSS	high polyreactivity
QVQLVESGGGLVPAGGSLLLSCAASGRTIYSYGMGWYRQAPGKERELVASISSSTGSTYYADSVKGRFTISRDNAKNTVYLQMNSLKPEDTAVYYCAKRYSWTRRYDYWGQGTQVTVSS	high polyreactivity
QVQHEESGGGLVQAGGSLRLSCAASGRIFFGKVMGGYRQAPGTERELVAVITSGGNTNYADSVKGRFTISRDNAKNTVYLQMHSLKPEDTAVYYCATAVVAGVWGYDYWGQGTQVTVSS	low polyreactivity
QVQLVESGGCLVQAGGSLRLSCDASGSTFLTNTMGWYRQPPGKERELVAAISSGDSTYYADSVKGRFTISRDNAKNTVYLQMNSLKPEVTAVYYCARDVGWRNVPRDYWGQGTQVTVSS	low polyreactivity
QVQLVESGGGLVQAGGSLRLSCAASGITFTVYAMGWYRQAPGKERELVAAITSTGSTNYADSVKGRFTISRDNAKNTVYLQMNSLKPEDTAVYYCAARRSHQYRGPHFNYWGQGTQVTVSS	low polyreactivity
QVQLVESGGGLVQAGGSLRLSCAASGRIFGRNAMGWYRQAPGKERELVAAISSGGSTYYADSVKGRFTISRDNAKNTVYLQMNSLKPEDTAVYFCAVRGSYYNGGRAFESWGQGTQVTVSS	high polyreactivity
QVQLVESGGGLVQAGGSLRLSCAASGSTFYTNAMGWSRQAPGTERELVAAISGSGGSTYYADSVKGRFTISRDNAKNTVYVQMNSLKPEDTAVYYCAARSRYYYTRFDYWGQGTQVTVSS	low polyreactivity
QVQLVESGGGLVQAGGSLRLSCAASGFTFIGNAMGWYRQAPGKERELVAAISSSGGRTYYADSVKGRFTISRDNAKNTVDLQMNSLKPEDTAVYYCATRQYRGVYYWGQGTQVTVSS	high polyreactivity
QVQLVESGVGLVQAGGSLRLSCAASGLTFRYYAMGWYRQAPGKERELVAAITRRGSTYYADSVKGRFTISRDNAKNTVYLQMISLKPEVTAVYYCATVTGFHSSPLRDLDYWGQGTQVTVSS	high polyreactivity
